For orientation: Kd means the constant that tells how readily two partners part at equilibrium. What is called koff is the rate constant with which the complex falls apart. The kon is the rate constant with which the complex forms. In general, EC50 refers to the concentration needed to bring the measured effect to its halfway point. In general, EC50 (read off the curve) refers to the concentration needed to bring the measured effect to its halfway point.

Test [1] addresses T1, IL-11 (UniProt P20809 22-199, limits assumed).
T1 construct: also called IL-11 protein; IL-11 antigen
T1 sequence (looked up): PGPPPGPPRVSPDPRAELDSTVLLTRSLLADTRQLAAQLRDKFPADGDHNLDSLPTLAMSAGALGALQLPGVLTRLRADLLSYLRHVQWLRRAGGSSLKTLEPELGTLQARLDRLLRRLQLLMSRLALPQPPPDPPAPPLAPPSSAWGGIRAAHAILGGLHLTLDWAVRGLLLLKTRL
The test can be described thus: ELISA on IL-11, monoclonal hybridoma antibody. In general terms: In an ELISA, binding on a coated surface is turned into a signal by an enzyme label.

The target in test [2] is T1, IL-11. Put plainly: flow, IL-11 + antibody on IL-11R cells; lower = more blocking.
The target of test [3] is T1, IL-11. Put plainly: SPR Biacore T200, antibody captured, IL-11 6.25-400 nM. Here is the method:
The measure method included the following steps of capturing the full-length humanized antibody at a flow rate of 10 μL/min. […] The binding time was 180 s, and the dissociation time was 600 s. Finally, the chip was regenerated with 10 mM glycine buffer.
(In general: SPR reads the build-up and loss of mass on a sensor chip optically.)

Test [4] deals with T2, recombinant human protein antigen hu-IL-11-His tag (human, UniProt P20809 22-199).
T2 construct: also called IL-11-His protein; not shown: His tag
T2 sequence (looked up): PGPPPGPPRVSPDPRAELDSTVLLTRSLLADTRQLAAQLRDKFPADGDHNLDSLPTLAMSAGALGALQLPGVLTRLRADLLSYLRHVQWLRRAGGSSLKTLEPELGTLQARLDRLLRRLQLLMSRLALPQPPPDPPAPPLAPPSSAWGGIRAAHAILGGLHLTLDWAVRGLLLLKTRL
The test can be described thus: flow cytometry competition: IL-11-His plus antibody on membrane-IL-11R CHO cells. Here is the method:
The inventors constructed a cell line (membrane-IL-11R CHO) that stably expressing IL-11R. […] Then 1.5*10\hat{ }5 membrane-IL-11R CHO cells (100 μL/well) were added and incubated for 1 h at room temperature. […] Then, the plate was incubated at 4° C. for 1 h, centrifuged at 1500 rpm for 5 min, washed three times with PBS, and resuspended cells in 180 μl PBS, and detected by flow cytometry.
On the technique in general: In flow cytometry, cells or beads pass a laser one at a time.

For test [5], the target named is T1, IL-11. The test can be described thus: BLI (Fortebio), antibody on AHC sensor, IL-11 as analyte. Here is the method:
(§1) The determination method consisted of the following steps: the humanized antibody was captured by an AHC sensor. […] Finally, the sensor was regenerated with 10 mM glycine (pH 1.7) buffer.

Test [6] has as its target T1, IL-11. The test can be described thus: BLI (Fortebio), antibody on AHC sensor, IL-11 3.91-125 nM. Here is the method:
as §1

The target in test [7] is T3, IL-11 stably expressed on CHO cells (membrane-IL-11 CHO) (UniProt P20809 22-199).
T3 construct: whole, on cells
T3 sequence (looked up): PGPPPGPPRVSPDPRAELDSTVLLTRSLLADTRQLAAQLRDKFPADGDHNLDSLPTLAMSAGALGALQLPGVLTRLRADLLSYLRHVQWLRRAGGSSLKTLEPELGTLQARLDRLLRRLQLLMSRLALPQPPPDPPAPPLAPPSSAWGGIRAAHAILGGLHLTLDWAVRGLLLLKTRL
The test can be described thus: flow cytometry on membrane-IL-11 CHO cells, detection with goat-anti-Fc-FITC. Here is the method:
The cells were washed 3 times with PBS, and then the flow secondary antibody Goat-anti-Fc-FITC (Abcam, ab98529) was added and detected by flow cytometry. The results were plotted as S-curves in FIG. 11.

B1: 3-2B5-3D2 (antibody, human IgG1, kappa, V domains shown)
VH: QVQLKQSGPGLVLPSQSLSITCTVSGFSLTSYGVHWFRQSPGTGLEWLGVIWSGGITDYNATFIPRLSISKDNSKSQVFFKMNSLQADDTAIYYCARNFDGYYYSIDYWGQGTSVTVSS
VL: DIQMTQTTSSLSASLGDRVTISCRASQDISNSLNWYQQKPDGTVKLLIYYTSRLHSGVPSRFTGSGSGTDYSLTISNLEQEDIATYFCQQGNTLPLTFGAGTKLELKR
In the case of B1, in the test with IL-11 [1], the OD450 was 1.61 OD450. The “FITC Mean” value with IL-11 [2] was determined as 15300 mean fluorescence.

B2: full-length chimeric antibody constructed by 5-20E11-5F2 (Example 15) (antibody, human IgG1, kappa, V domains shown)
VH: QVQLQQSGAELVRPGTSAKISCKASDYTFTNYWLGWLKQRPGHGLEWIGHIYPGGGYTNYNEKFKGKATLTADTSSSTAYMQLSSLTSEDSAVYFCARVRSGNDALDFWGQGTSVTVSS
VL: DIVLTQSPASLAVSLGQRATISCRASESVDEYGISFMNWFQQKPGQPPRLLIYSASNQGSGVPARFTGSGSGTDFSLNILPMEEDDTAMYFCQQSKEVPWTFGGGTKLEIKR
notes: also called CPD-1; VH+VL
In the case of B2, in the test with IL-11 [3], the affinity, expressed as Kd, was 6.41 nM; the koff came to 0.000433 s⁻¹; the kon came out at 67600 M⁻¹ s⁻¹. Besides, the EC50 in test [4] was determined as 7.54 µg/mL.

B3: MIL-11 mab-02 (antibody, IgG1, V domains shown)
VH: QVQLVQSGAEVKKPGASVKVSCKASDYTFTNYWLGWVRQAPGQGLEWMGHIYPGGGYTNYNEKFKGRVTMTRDTSTSTVYMELSSLRSEDTAVYYCARVSSGNDALDFWGQGTLVTVSS
VL: EIVLTQSPATLSLSPGERATLSCRASESVDEYGISFMNWFQQKPGQAPRLLIYSASNQGSGIPARFSGSGSGTDFTLTISSLEPEDFAVYFCQQSKELPWTFGGGTKLEIK
notes: also called 2E2 full-length antibody
For the molecule B3, the “fold increase of affinity against the humanized antibody VH1+VL3” value with IL-11 [5] came out at 10 fold. In the test with IL-11 [6], the Kd was 0.242 nM, the koff was found to be 0.00013 s⁻¹ and the kon turned out to be 535000 M⁻¹ s⁻¹. The “EC50 (read off the curve)” value in test [7] was roughly 2 µg/mL.

B4: VH1+VL3 full-length humanized antibody (antibody, human IgG1, kappa, V domains shown)
VH: QVQLVQSGAEVKKPGASVKVSCKASDYTFTNYWLGWVRQAPGQGLEWMGHIYPGGGYTNYNEKFKGRVTMTRDTSTSTVYMELSSLRSEDTAVYYCARVRSGNDALDFWGQGTLVTVSS
VL: EIVLTQSPATLSLSPGERATLSCRASESVDEYGISFMNWFQQKPGQAPRLLIYSASNQGSGIPARFSGSGSGTDFTLTISSLEPEDFAVYFCQQSKEVPWTFGGGTKLEIKR
notes: IgG form, IgG1 Fc; also called VH1+VL3 mAb; CPD-2
In the test with IL-11 [3], B4 had a Kd of 9.03 nM, a koff of 0.000474 s⁻¹ and a kon of 52600 M⁻¹ s⁻¹. Besides, in the test with IL-11 [6], the Kd is 2.84 nM, the koff is 0.000609 s⁻¹ and the kon stood at 214000 M⁻¹ s⁻¹. In test [4], the EC50 was 10.5 µg/mL. For the same molecule, in test [7], the “EC50 (read off the curve)” value was roughly 2 µg/mL.

B5: VH1+VL4 full-length humanized antibody (antibody, human IgG1, kappa, V domains shown)
VH: QVQLVQSGAEVKKPGASVKVSCKASDYTFTNYWLGWVRQAPGQGLEWMGHIYPGGGYTNYNEKFKGRVTMTRDTSTSTVYMELSSLRSEDTAVYYCARVRSGNDALDFWGQGTLVTVSS
VL: EIVLTQSPATLSLSPGERATLSCRASESVDEYGISFMNWFQQKPGQAPRLLIYSASNQGSGIPARFSGSGSGTDFTLTISSLEPEDFAMYFCQQSKEVPWTFGGGTKLEIKR
notes: IgG form, IgG1 Fc
For the molecule B5, in the test with IL-11 [3], the Kd came out at 10 nM, the koff was 0.000545 s⁻¹ and the kon was 54300 M⁻¹ s⁻¹. The EC50 in test [4] is 12.5 µg/mL.

B6: VH1+VL2 full-length humanized antibody (antibody, human IgG1, kappa, V domains shown)
VH: QVQLVQSGAEVKKPGASVKVSCKASDYTFTNYWLGWVRQAPGQGLEWMGHIYPGGGYTNYNEKFKGRVTMTRDTSTSTVYMELSSLRSEDTAVYYCARVRSGNDALDFWGQGTLVTVSS
VL: EIVLTQSPATLSLSPGERATLSCRASESVDEYGISFMNWYQQKPGQAPRLLIYSASNQGSGIPARFSGSGSGTDFTLTISSLEPEDFAVYFCQQSKEVPWTFGGGTKLEIKR
notes: IgG form, IgG1 Fc
In the test with IL-11 [3], B6 yielded a Kd of 12 nM, a koff of 0.000597 s⁻¹ and a kon of 49800 M⁻¹ s⁻¹. Moreover, in test [4], the EC50 stood at 11.6 µg/mL.

B7: MIL-11 mab-03 (antibody, IgG1, V domains shown)
VH: QVQLVQSGAEVKKPGASVKVSCKASDYTFTNYWLGWVRQAPGQGLEWMGHIYPGGGYTNYNEKFKGRVTMTRDTSTSTVYMELSSLRSEDTAVYYCARVSSGNDALDFWGQGTLVTVSS
VL: EIVLTQSPATLSLSPGERATLSCRASESVDEYGISFMNWFQQKPGQAPRLLIYSASNQASGIPARFSGSGSGTDFTLTISSLEPEDFAVYFCQQSKELPWTFGGGTKLEIK
notes: also called 1F12 full-length antibody
Regarding B7, in the test with IL-11 [5], the “fold increase of affinity against the humanized antibody VH1+VL3” value came out at 10 fold. In the test with IL-11 [6], the Kd stood at 0.262 nM, the koff came out at 0.000152 s⁻¹ and the kon was determined as 580000 M⁻¹ s⁻¹. Also, the “EC50 (read off the curve)” value in test [7] was roughly 2 µg/mL.

B8: MIL-11 mab-01 (antibody, IgG1, V domains shown)
VH: QVQLVQSGAEVKKPGASVKVSCKASDYTFTNYWLGWVRQAPGQGLEWMGHIYPGGGYTNYNEKFKGRVTMTRDTSTSTVYMELSSLRSEDTAVYYCARVSSGNDALDLWGQGTLVTVSS
VL: EIVLTQSPATLSLSPGERATLSCRASESVDEYGISFMNWFQQKPGQAPRLLIYSGSNEGSGIPARFSGSGSGTDFTLTISSLEPEDFAVYFCNQSKEVPWTFGGGTKLEIK
notes: also called 1E12 full-length antibody
Turning to B8, in the test with IL-11 [6], the Kd worked out at 1.17 nM, the koff was 0.000584 s⁻¹ and the kon worked out at 501000 M⁻¹ s⁻¹. Also, the 50% effective concentration (EC50 (read off the curve)) in test [7] was roughly 3 µg/mL.

The values above are taken from US20250002574A1 (SUNSHINE LAKE PHARMA, published 2025).
